Where no end group is shown, it is not given here. The star is where a group is joined. DTPA = O=C(O)CN(CCN(CC(=O)O)CC(=O)O)CCN(CC(=O)O)CC(=O)*

Assay [1] deals with T1, RXFP1(1–72) (Homo sapiens, UniProt Q9HBX9).
T1 construct: GB1 (N, cleaved yes); made in house; host or cells: E. coli BL21 (DE3) trxB
T1 sequence (Q9HBX9 23-94 limits assumed): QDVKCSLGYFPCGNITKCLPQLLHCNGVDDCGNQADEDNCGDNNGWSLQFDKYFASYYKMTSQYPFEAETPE
The experiment in a line: NMR competition titration against the RXFP1(1–72)/Mn2+-DTPA-(A)-H2 complex. The settings on record: 50 μM peptide added to 50 μM 15N-RXFP1(1–72) with 0.2 μM Mn2+-DTPA-(A)-H2; pH 6.8, 25 °C. Type of assay: binding. The method, then:
All RXFP1(1–72) protein samples for nuclear magnetic resonance (NMR) experiments were prepared from lyophilized protein in 50 mM imidazole, with 10 mM CaCl2 at pH 6.8. Recombinant human gene-2 H2 relaxin peptide was kindly provided by Corthera. EL1^(475–486)/EL2-GB1 samples were prepared as described above. Titrant and titrand were dialyzed in the same buffer in the same vessel. All NMR experiments were routinely collected at 25 °C on a 700-MHz Bruker Avance HDIII spectrometer equipped with triple resonance cryoprobe. […] Backbone assignments were made from 3D HNCACB, HNCOCACB, HNCO and HNCACO experiments. Spectra were processed using NMRPipe (ref. [43]) and typically Fourier-transformed after applying Lorentz-to-Gauss window functions in the direct dimension and cosine bells in the indirect dimensions. NMR data were analysed using SPARKY (Goddard, T.D. and Kneller, D.G., University of California, San Francisco). Assignments of the mutant RXFP1(1–72) proteins were determined from the assignments of wild-type RXFP1(1–72).
^15N{^1H}-NOE experiments[45] (2,048 × 256 data points) were acquired with a saturation pulse of 4 s and an additional relaxation delay of 5 s. Sample conditions were 150 μM RXFP(1–72) or mutants either without or with 450 μM H2 relaxin. Binding to Mn^2+-DTPA-(A)-H2 to RXFP1(1–72) and mutants was monitored by recording 2D ^1H-^15N HSQC (2,048 × 256 data points) for 0.2 μM Mn^2+-DTPA-(A)-H2 against 50 μM RXFP1(1–72). H2 relaxin and its truncates such as A-chain (9–24), H2/I5 chimera and Phe23Ala A-chain mutant H2 were titrated into a complex of 50 μM RXFP1(1–72) and 0.2 μM Mn^2+-DTPA-(A)-H2 with increasing concentrations ranging from 5 to 50 μM.

The target of assay [2] is T2, RXFP1 C40A^ins (Homo sapiens, UniProt Q9HBX9, INS62A).
T2 construct: cells expressing full-length RXFP1 and mutants; expressed in transfected cells; host or cells: HEK293T
T2 sequence (Q9HBX9 with tags, fused parts or gaps INS62A limits assumed): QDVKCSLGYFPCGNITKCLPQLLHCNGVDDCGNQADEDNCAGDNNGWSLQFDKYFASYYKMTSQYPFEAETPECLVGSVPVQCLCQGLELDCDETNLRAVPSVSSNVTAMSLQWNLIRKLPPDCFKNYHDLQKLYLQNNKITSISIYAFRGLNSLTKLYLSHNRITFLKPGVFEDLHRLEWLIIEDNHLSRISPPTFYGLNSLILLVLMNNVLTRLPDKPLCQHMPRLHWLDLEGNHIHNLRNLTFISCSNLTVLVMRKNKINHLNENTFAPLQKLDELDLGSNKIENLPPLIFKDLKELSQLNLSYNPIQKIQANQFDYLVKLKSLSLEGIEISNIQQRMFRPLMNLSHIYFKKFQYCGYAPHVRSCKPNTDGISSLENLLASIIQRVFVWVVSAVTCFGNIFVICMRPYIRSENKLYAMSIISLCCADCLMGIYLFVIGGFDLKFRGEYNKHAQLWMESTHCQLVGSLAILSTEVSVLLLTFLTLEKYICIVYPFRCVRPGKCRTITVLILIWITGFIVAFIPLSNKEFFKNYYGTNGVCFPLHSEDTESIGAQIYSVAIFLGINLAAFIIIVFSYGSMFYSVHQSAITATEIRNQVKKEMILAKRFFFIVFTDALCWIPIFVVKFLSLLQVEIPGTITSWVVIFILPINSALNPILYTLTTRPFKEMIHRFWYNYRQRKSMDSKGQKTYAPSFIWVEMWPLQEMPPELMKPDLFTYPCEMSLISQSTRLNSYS
The assay can be described thus: Eu-H2 relaxin saturation binding assay, transfected HEK293T cells. The conditions noted are these: C40A^ins full-length RXFP1 versus wild-type RXFP1.

Assay [3] addresses T3, relaxin family peptide receptor-1 (RXFP1), wild type, full length (human, UniProt Q9HBX9 23-757).
T3 construct: also called wild-type RXFP1; source: HEK293T, transiently transfected, on cells; not shown: FLAG, N-terminal, kept
T3 sequence (looked up): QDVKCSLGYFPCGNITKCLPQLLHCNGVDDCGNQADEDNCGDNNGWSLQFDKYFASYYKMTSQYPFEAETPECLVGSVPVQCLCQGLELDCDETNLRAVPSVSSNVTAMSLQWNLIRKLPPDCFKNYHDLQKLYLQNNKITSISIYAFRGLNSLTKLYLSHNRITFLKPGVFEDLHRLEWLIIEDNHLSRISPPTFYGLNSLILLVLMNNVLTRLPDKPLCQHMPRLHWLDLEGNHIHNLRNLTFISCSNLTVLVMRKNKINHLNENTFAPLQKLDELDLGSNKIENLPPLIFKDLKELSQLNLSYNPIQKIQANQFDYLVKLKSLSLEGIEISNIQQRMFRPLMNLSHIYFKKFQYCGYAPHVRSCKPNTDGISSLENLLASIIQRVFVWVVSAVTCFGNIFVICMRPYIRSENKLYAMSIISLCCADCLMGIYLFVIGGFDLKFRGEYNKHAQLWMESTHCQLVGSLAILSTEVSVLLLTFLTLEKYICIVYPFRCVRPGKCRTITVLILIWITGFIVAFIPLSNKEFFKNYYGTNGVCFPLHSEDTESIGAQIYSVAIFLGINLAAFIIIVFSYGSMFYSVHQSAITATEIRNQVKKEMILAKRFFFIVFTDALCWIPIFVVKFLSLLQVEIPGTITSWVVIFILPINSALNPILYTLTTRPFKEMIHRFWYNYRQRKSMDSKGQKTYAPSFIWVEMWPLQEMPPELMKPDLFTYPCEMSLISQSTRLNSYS
The assay can be described thus: europium-labelled ligand saturation binding on cells (time-resolved fluorescence); HEK293T cells transiently transfected with receptor, 96-well plates; increasing Eu-H2 relaxin (maximum 15 nM) with or without 1 μM unlabelled H2 relaxin, 1 h, room temperature; 20 mM HEPES pH 7.5, 1.5 mM CaCl2, 50 mM NaCl, 0.01% NaN3, 1% BSA; one-site fit. The conditions noted are these: one partner purified.

In assay [4] the target is RXFP1 F54A/Y58A, full length (human). The experiment in a line: europium-labelled ligand saturation binding on cells (time-resolved fluorescence); HEK293T cells transiently transfected with receptor, 96-well plates; increasing Eu-H2 relaxin (maximum 15 nM) with or without 1 μM unlabelled H2 relaxin, 1 h, room temperature; 20 mM HEPES pH 7.5, […] CaCl2, 50 mM NaCl, 0.01% NaN3, 1% BSA; one-site fit.

Turning to “H2 relaxin: two-chain 6-kDa peptide hormone structurally related to insulin; recombinant human gene-2 H2 relaxin provided by Corthera”, the “competition with Mn2+-DTPA-(A)-H2 for RXFP1(1–72) (peak intensities, chemical shifts)” value in assay [1] was “reappearance of the broadened peaks”. The “decrease in H2 relaxin affinity” value in assay [2] is on record as “sixfold”.

B1: Europium-labelled H2 relaxin (ligand, human)
chain 1: {DTPA}-QLYSALANKCCHVGCTKRSLARFC
chain 2: DSWMEEVIKLCGRELVRAQIAICGMSTWS
modifications: not fully specified; ends and bridges not checked; also: DTPA cage loaded with Eu^3+
notes: A chain of human gene-2 (H2) relaxin; numbers count on: the A chain; B chain of human gene-2 (H2) relaxin; numbers count on: the B chain; also called Eu-H2 relaxin; Eu-H2
For orientation: Kd means a measure of binding affinity in units of concentration. Read a low Kd as tighter binding. In the case of B1, the Kd was 0.57 nM in assay [3] and 6.51 nM in assay [4].

These data come from PMC4837482, “The complex binding mode of the peptide hormone H2 relaxin to its receptor RXFP1” (Nature Communications, 2016).
